The source of these data is the RNAGym collection of RNA variant scans (doi:10.7554/elife.80360).

To fix the notation:
B1: Twister Ribozyme (parent)
chain: AACACUGCCAAUGCCGGUCCCAAGCCCGGAUAAAAGUGGAGGGGGCGG

In this series the parent is B1. In words: self-cleavage, relative activity (ratio to wild type); higher = more cleavage; co-transcriptional.
Turning to G16C C20A, the self-cleavage is 0.0672.

G16C C20G: the self-cleavage turned out to be 0.104.

In the case of C15U C19U, the self-cleavage worked out at 0.902.

With C15U C19G, the self-cleavage was 0.251.

With G17A C25G, the self-cleavage was determined as 0.0728.

With G17A C25A, the self-cleavage is 0.164.

In the case of G17A C25U, the self-cleavage is 0.255.

On to G16A C25U, for which the self-cleavage was 0.852.

Regarding G16C A35C, the self-cleavage is 0.394.

Take G17A A34G: the self-cleavage is 0.211.

Turning to G17A A34U, the self-cleavage was 0.137.

As to G16A C27G, the self-cleavage came to 0.745.

Take G17A G44A: the self-cleavage stood at 0.671.

G17A G44C: the self-cleavage stood at 0.733.

As for C15U C25G, the self-cleavage was 0.414.

G16C C25A: the self-cleavage is 0.0993.

For G16C A30G, the self-cleavage stood at 0.31.

G16C A30U: the self-cleavage was found to be 0.741.

Turning to G17A C26A, the self-cleavage is 0.78.

With G17A C26G, the self-cleavage was 0.442.

For G17U G44C, the self-cleavage is 0.293.

Turning to C15U A23U, the self-cleavage is 0.291.

As to G17C G47C, the self-cleavage amounted to 0.142.

G17C G47A: the self-cleavage was 0.0753.

Regarding C15U G47C, the self-cleavage turned out to be 0.415.

On to G16C A23C, for which the self-cleavage was found to be 0.0636.

In the case of G17U U31G, the self-cleavage was 0.339.

Consider G17U U31A, for which the self-cleavage worked out at 0.471.

Turning to G17A G42A, the self-cleavage worked out at 0.107.

G17A G48A: the self-cleavage worked out at 0.661.

With G17C A40C, the self-cleavage was found to be 0.117.

Turning to G17C A40U, the self-cleavage stood at 0.0929.

With G16A G39A, the self-cleavage worked out at 0.185.

Regarding G16A G39C, the self-cleavage amounted to 0.141.

On to G16U G36U, for which the self-cleavage is 0.124.

For the variant G16U G36A, the self-cleavage was 0.426.

For G17C A34U, the self-cleavage turned out to be 0.0853.

For the variant G17C A34G, the self-cleavage turned out to be 0.112.

G16A A23C: the self-cleavage was 0.137.

With G16A A23G, the self-cleavage amounted to 0.161.

Take G16A C21G: the self-cleavage is 0.0789.

As to G16A C21U, the self-cleavage amounted to 0.0697.

Turning to G16C G41C, the self-cleavage amounted to 0.0971.

Take G16C G41U: the self-cleavage came to 0.103.

Consider G17C C20G, for which the self-cleavage was found to be 0.0846.

On to G17A G45C, for which the self-cleavage turned out to be 0.278.

For the variant G17A A22G, the self-cleavage came out at 0.136.

For G17A A22C, the self-cleavage stood at 0.669.

With G17A A22U, the self-cleavage came out at 0.258.

In the case of G17U A40G, the self-cleavage is 0.0578.

Consider G17U A40C, for which the self-cleavage was 0.123.

Consider C15U A35G, for which the self-cleavage stood at 0.659.

Turning to C15U A35U, the self-cleavage was 0.915.

G17C G24U: the self-cleavage worked out at 0.0734.

Consider G17C G24C, for which the self-cleavage turned out to be 0.0583.

Consider G17C G24A, for which the self-cleavage worked out at 0.0848.

Turning to G17U G47C, the self-cleavage amounted to 0.183.

As to G17U G47U, the self-cleavage was 0.181.

Take C15U G43U: the self-cleavage was found to be 0.277.

Turning to G16C A33G, the self-cleavage was 0.403.

Take G16U G39A: the self-cleavage turned out to be 0.595.

For G16U G39U, the self-cleavage is 0.225.

On to C15U G45U, for which the self-cleavage was 0.817.

C15U G45C: the self-cleavage is 0.64.

For C15U G45A, the self-cleavage worked out at 0.924.

With G16C U31G, the self-cleavage was 0.663.

Turning to G16A A34U, the self-cleavage came out at 0.417.

As for G16U C27A, the self-cleavage came out at 0.908.

Consider C15U C20U, for which the self-cleavage turned out to be 0.845.

Regarding G16C G28A, the self-cleavage amounted to 0.194.

Regarding G16C G28U, the self-cleavage worked out at 0.383.

Take G17A G43C: the self-cleavage stood at 0.129.

For the variant G17A G43U, the self-cleavage worked out at 0.123.

As to C15G U31G, the self-cleavage was determined as 0.153.

In the case of G17A G39C, the self-cleavage amounted to 0.105.

Take G17A G39U: the self-cleavage is 0.165.

In the case of G16U G29C, the self-cleavage was found to be 0.544.

In the case of G16U G29A, the self-cleavage worked out at 0.946.

On to G16U G38U, for which the self-cleavage is 0.914.

For C15U G44U, the self-cleavage was found to be 0.988.

Consider C15U G44C, for which the self-cleavage was 0.812.

Turning to G16C C46A, the self-cleavage was found to be 0.693.

In the case of G16C C46G, the self-cleavage turned out to be 0.262.

Regarding G16C C26A, the self-cleavage is 0.35.

With G17A U37G, the self-cleavage was determined as 0.175.

For G17A U37C, the self-cleavage came to 0.142.

On to G17C A35U, for which the self-cleavage is 0.138.

Turning to G17A A35U, the self-cleavage was 0.869.

With G16C G42U, the self-cleavage was 0.115.

For G16C G42C, the self-cleavage stood at 0.121.

G16C G42A: the self-cleavage is 0.139.

On to G17C G39A, for which the self-cleavage was 0.0934.

With G16U G24A, the self-cleavage worked out at 0.129.

Regarding G16U G24U, the self-cleavage came to 0.0815.

For C15U G24A, the self-cleavage stood at 0.1.

As to C15U G24C, the self-cleavage was determined as 0.115.

Regarding C15U C27U, the self-cleavage was found to be 0.542.

For the variant G17U U18A, the self-cleavage stood at 0.148.

In the case of G17U U18G, the self-cleavage worked out at 0.106.

As to C15U A22G, the self-cleavage was found to be 0.147.

Consider G17A A30U, for which the self-cleavage was determined as 0.695.

For the variant G17A A30G, the self-cleavage was determined as 0.615.

For the variant G16A U18G, the self-cleavage amounted to 0.0863.

As to G17C C27G, the self-cleavage was 0.195.

For the variant G17C C27U, the self-cleavage came to 0.0804.

As to G16A U31C, the self-cleavage is 0.816.

Turning to G16A U31A, the self-cleavage amounted to 0.958.

Take G16A G38U: the self-cleavage came out at 0.656.

Regarding G16C G24A, the self-cleavage worked out at 0.0685.

Turning to G16C G24C, the self-cleavage was found to be 0.0655.

As for G16C G45A, the self-cleavage turned out to be 0.161.

With G16C G45U, the self-cleavage worked out at 0.379.

Turning to G16C G45C, the self-cleavage stood at 0.249.

For G16C C19A, the self-cleavage was determined as 0.165.

On to G16C C19U, for which the self-cleavage stood at 0.461.

In the case of G16C U18A, the self-cleavage turned out to be 0.336.

With G16C U18C, the self-cleavage came out at 0.114.

As for G16A G24C, the self-cleavage was determined as 0.0993.

As to G16A G24U, the self-cleavage stood at 0.113.

As for G16A A32C, the self-cleavage turned out to be 0.97.

Take G16U A23U: the self-cleavage was found to be 0.238.

On to G17C A22G, for which the self-cleavage is 0.0562.

Turning to G16C C21U, the self-cleavage was found to be 0.0834.

Consider G16C C21G, for which the self-cleavage is 0.0586.

For the variant G16C G17C, the self-cleavage came out at 0.0907.

On to G16C G17U, for which the self-cleavage was 0.174.

Turning to U18A A30C, the self-cleavage worked out at 0.104.

In the case of C15U A32G, the self-cleavage was determined as 0.891.

Turning to C15U A32C, the self-cleavage was determined as 0.678.

As to G16U C25A, the self-cleavage came out at 0.206.

In the case of G16U C25G, the self-cleavage worked out at 0.154.

As for G16U G41A, the self-cleavage came out at 0.278.

With G17C U18C, the self-cleavage stood at 0.1.

As for G17C C19A, the self-cleavage stood at 0.0513.

Consider G17C C19U, for which the self-cleavage stood at 0.105.

G17C C19G: the self-cleavage stood at 0.0591.

On to G16U A30U, for which the self-cleavage came out at 1.08.

Turning to G16U A30C, the self-cleavage amounted to 0.804.

For the variant G17U G36A, the self-cleavage is 0.124.

With G17C C25U, the self-cleavage was 0.0911.

For the variant G17C C25A, the self-cleavage came to 0.0882.

In the case of G16U A40G, the self-cleavage was determined as 0.206.

For the variant G17A G38U, the self-cleavage was 0.468.

Take G17A G38C: the self-cleavage amounted to 0.54.

Consider G16A G44A, for which the self-cleavage was 0.928.

Regarding G16A G44U, the self-cleavage stood at 1.

As to G16A G36A, the self-cleavage amounted to 0.409.

On to G17U C27G, for which the self-cleavage is 0.424.

As to G17U C27U, the self-cleavage turned out to be 0.207.

As for C15U G39A, the self-cleavage was 0.314.

For the variant C15U G39C, the self-cleavage stood at 0.146.

In the case of G17C U31A, the self-cleavage came out at 0.138.

G17U A35G: the self-cleavage turned out to be 0.1.

G17U A35C: the self-cleavage was 0.305.

Turning to U18A A23U, the self-cleavage stood at 0.753.

In the case of U18A A23C, the self-cleavage turned out to be 0.372.

G17U G24U: the self-cleavage is 0.0893.

In the case of G17U G24C, the self-cleavage was 0.0691.

G16A C19G: the self-cleavage was found to be 0.172.

Consider G17C C21A, for which the self-cleavage is 0.0572.

With G16A C26G, the self-cleavage turned out to be 0.112.

As for C15U G28U, the self-cleavage is 0.973.

Turning to C15U G28A, the self-cleavage stood at 1.14.

In the case of G17U G28A, the self-cleavage was 0.11.

As for G17U G28U, the self-cleavage was determined as 0.122.

Regarding G17U A30G, the self-cleavage was 0.265.

Regarding G16C A34C, the self-cleavage amounted to 0.0817.
